According to US20220273711A1 (University of Washington, published 2022):

B1: Bim_EGFR (EGFR DARPin tagged with N-terminal Bim peptide) (designed binder)
chain: MGSHHHHHHGSGSENLYFQGSTDEIWIAQELRRIGDEFNAYYASGSGDLGKKLLEAARAGQDDEVRILMANGADVNADDTWGWTPLHLAAYQGHLEIVEVLLKNGADVNAYDYIGWTPLHLAADGHLEIVEVLLKNGADVNASDYIGDTPLHLAAHNGHLEIVEVLLKHGADVNAQDKFGKTAFDISIDNGNEDLAEILQKLN
notes: also called anti-EGFR DARPin with N-terminal fusion to Bim; Bim-DARPin
B2: Bim_Her2 (Her2 DARPin tagged with N-terminal Bim peptide) (designed binder)
chain: MGSHHHHHHGSGSENLYFQGSTDEIWIAQELRRIGDEFNAYYASGSGDLGKKLLEAARAGQDDEVRILMANGADVNAKDEYGLTPLYLATAHGHLEIVEVLLKNGADVNAVDAIGFTPLHLAAFIGHLEIAEVLLKHGADVNAQDKFGKTAFDISIGNGNEDLAEILQKLN
notes: also called Anti-Her2 DARPin with N-terminal fusion to Bim; Bim-DARPin

What was measured:
[1] = molecular target: T1, EGFR-iRFP (hsEGFR_ecd_tm-iRFP) (human (hs)); assay: flow cytometry; Bim-DARPin pre-complexed with Bcl2-AF594, 3-fold dilutions from 300 nM to 0.4 nM, mixed K562 cells expressing Her2-eGFP, EGFR-iRFP, both or neither
T1 construct: Expressed on K562 cells by lentiviral transduction; also called EGFR-iRFP on K562 cells
Procedure: (§1) FIG. 16. DARPin binder affinity measured by flow cytometry. Anti-Her2 or anti-EGFR DARPins with N-terminal fusions to Bim were pre-complexed with Bcl2-AF594 and serially diluted 3-fold from 300 nM down to 0.4 nM. This dilution series was used to label a mixed population of K562 cells expressing Her2-eGFP, EGFR-iRFP, both, or neither for one hour at room temperature in a 50 μl incubation volume. The cells were then washed in PBS supplemented with 0.1% bovine serum albumin and analyzed on an LSRII flow cytometer.

[2] = molecular target: T2, Her2-eGFP (hsHER2_ecd_tm-eGFP) (human (hs)); assay: as above
T2 construct: Expressed on K562 cells by lentiviral transduction; also called Her2-eGFP on K562 cells
Procedure: as §1

T1 sequence (chain, as listed by the source limits assumed): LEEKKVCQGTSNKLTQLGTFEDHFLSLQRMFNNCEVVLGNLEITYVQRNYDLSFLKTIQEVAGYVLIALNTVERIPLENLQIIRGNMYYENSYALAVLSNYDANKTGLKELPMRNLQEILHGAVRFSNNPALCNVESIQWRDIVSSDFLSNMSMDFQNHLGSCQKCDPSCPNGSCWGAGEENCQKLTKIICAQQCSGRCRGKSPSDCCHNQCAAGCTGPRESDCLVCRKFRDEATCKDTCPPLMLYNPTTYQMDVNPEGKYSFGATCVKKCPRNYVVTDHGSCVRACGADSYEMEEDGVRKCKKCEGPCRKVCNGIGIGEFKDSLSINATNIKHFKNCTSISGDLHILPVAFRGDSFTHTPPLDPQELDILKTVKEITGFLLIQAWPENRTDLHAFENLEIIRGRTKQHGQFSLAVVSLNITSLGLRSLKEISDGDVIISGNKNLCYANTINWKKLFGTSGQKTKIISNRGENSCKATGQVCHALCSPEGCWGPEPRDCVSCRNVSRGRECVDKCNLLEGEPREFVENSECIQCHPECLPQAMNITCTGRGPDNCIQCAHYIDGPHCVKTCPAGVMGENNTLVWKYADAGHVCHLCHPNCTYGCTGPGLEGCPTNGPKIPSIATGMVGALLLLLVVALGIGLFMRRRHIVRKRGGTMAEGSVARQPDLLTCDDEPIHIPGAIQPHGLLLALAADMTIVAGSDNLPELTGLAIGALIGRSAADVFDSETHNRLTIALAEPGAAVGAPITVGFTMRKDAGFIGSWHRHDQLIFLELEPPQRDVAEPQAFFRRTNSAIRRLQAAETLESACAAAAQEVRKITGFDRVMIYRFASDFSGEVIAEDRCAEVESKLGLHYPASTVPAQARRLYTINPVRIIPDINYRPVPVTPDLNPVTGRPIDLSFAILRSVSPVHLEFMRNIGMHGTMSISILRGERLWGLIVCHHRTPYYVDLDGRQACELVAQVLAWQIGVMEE

Binder | Kd [1] [nM] | Kd [2] [nM]
B1 | ~10 | –
B2 | – | ~10
